{
  "source": "patent US12760268",
  "about": "“Compositions and methods related to transferrin receptor-binding aptamers” (University of Washington)",
  "key": {"[1]": {"molecular_target": "T1, Transferrin receptor 1 (TfR1, CD71) (Homo sapiens, UniProt P02786 SEQ:89-760)", "T1 sequence (P02786 89-760)": "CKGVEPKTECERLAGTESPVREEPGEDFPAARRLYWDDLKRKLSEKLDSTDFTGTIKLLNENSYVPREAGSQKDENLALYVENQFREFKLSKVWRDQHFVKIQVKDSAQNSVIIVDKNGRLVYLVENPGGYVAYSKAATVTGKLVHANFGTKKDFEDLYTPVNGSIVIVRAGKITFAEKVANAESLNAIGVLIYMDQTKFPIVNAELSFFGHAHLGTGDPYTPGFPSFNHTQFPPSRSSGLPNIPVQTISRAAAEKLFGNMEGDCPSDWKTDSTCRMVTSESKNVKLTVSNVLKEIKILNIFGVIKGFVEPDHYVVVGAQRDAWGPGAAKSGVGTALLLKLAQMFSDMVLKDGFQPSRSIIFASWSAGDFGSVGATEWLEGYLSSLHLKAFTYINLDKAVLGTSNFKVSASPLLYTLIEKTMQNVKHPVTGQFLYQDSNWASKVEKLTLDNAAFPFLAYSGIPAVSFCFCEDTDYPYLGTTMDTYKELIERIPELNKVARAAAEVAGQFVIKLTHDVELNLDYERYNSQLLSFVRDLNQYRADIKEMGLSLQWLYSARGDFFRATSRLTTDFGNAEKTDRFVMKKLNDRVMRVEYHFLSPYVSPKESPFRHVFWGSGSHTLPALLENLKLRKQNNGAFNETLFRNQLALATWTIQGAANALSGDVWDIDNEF", "test": "BLI; no appreciable binding, single concentration", "conditions": "tags: biotinylated, ACROBiosystems TfR-H82E5, immobilized on streptavidin biosensor; chain copies: 2; label: 5'-FAM"}, "[2]": {"molecular_target": "T1, Transferrin receptor 1 (TfR1, CD71)", "test": "BLI; negative control", "conditions": "tags: biotinylated, ACROBiosystems TfR-H82E5, immobilized on streptavidin biosensor; chain copies: 2; label: 5'-FAM, 5'-Cy5 or 5'-biotin"}, "[3]": {"molecular_target": "T2, Cellular nucleic acid-binding protein (CNBP, ZNF9) (Homo sapiens, UniProt P62633 P62633:1-177)", "T2 sequence (P62633 whole entry, one chain of several)": "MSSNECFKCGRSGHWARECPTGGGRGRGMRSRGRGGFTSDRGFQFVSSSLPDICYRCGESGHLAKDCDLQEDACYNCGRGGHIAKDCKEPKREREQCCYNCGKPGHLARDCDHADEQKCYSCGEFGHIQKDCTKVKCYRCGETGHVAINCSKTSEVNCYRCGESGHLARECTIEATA", "test": "BLI", "conditions": "tags: His-tag, Novus Biologicals NBP2-22742, immobilized on Ni-NTA biosensor"}, "[4]": {"molecular_target": "T3, Transferrin receptor 1 (TfR1, CD71), endogenous on cells (Homo sapiens, UniProt P02786 SEQ:89-760)", "T3 sequence (P02786 89-760)": "as the sequence (P02786 89-760) above", "test": "flow; H9 cells, apparent Kd, 4 C", "conditions": "chain copies: 2 (stated homodimer); label: 5'-FAM or 5'-Cy5; multi-hairpin with extended stem"}, "[5]": {"molecular_target": "T1, Transferrin receptor 1 (TfR1, CD71)", "test": "BLI; 25 C, 5.5 mM Mg, 1:1 fit", "conditions": "tags: biotinylated, ACROBiosystems TfR-H82E5, immobilized on streptavidin biosensor, chain copies: 2"}, "[6]": {"molecular_target": "T3, Transferrin receptor 1 (TfR1, CD71), …", "test": "flow; Jurkat cells, apparent Kd, 4 C", "conditions": "chain copies: 2 (stated homodimer)"}, "[7]": {"molecular_target": "T1, Transferrin receptor 1 (TfR1, CD71)", "test": "BLI; 25 C, 5.5 mM Mg, 1:1 fit; tRNA and salmon sperm DNA present", "conditions": "tags: biotinylated, ACROBiosystems TfR-H82E5, immobilized on streptavidin biosensor; chain copies: 2; label: 5'-FAM (with added 5' T), 5'-Cy5 or 5'-biotin; multi-hairpin on stem; G-quadruplex predicted"}, "[8]": {"molecular_target": "T3, Transferrin receptor 1 (TfR1, CD71), …", "test": "flow; H9 cells, apparent Kd (+/-13.0), 4 C", "conditions": "chain copies: 2 (stated homodimer); label: 5'-FAM (with added 5' T), 5'-Cy5 or 5'-biotin; multi-hairpin on stem; G-quadruplex predicted"}, "[9]": {"molecular_target": "T2, Cellular nucleic acid-binding protein …", "test": "BLI; 2:1 heterogeneous ligand fit, first Kd; off-target", "conditions": "tags: His-tag, Novus Biologicals NBP2-22742, immobilized on Ni-NTA biosensor; label: 5'-FAM (with added 5' T), 5'-Cy5 or 5'-biotin; multi-hairpin on stem; G-quadruplex predicted"}, "[10]": {"molecular_target": "T2, Cellular nucleic acid-binding protein …", "test": "BLI; 2:1 heterogeneous ligand fit, second Kd; off-target", "conditions": "tags: His-tag, Novus Biologicals NBP2-22742, immobilized on Ni-NTA biosensor; label: 5'-FAM (with added 5' T), 5'-Cy5 or 5'-biotin; multi-hairpin on stem; G-quadruplex predicted"}, "[11]": {"molecular_target": "T3, Transferrin receptor 1 (TfR1, CD71), …", "test": "flow; Jurkat cells, apparent Kd, 4 C; TfR1-independent component present", "conditions": "chain copies: 2 (stated homodimer); label: 5'-FAM (with added 5' T), 5'-Cy5 or 5'-biotin; multi-hairpin on stem; G-quadruplex predicted"}, "[12]": {"molecular_target": "Transferrin receptor 1 (mTfR1) (Mus musculus, UniProt Q62351 SEQ:89-763)", "sequence (Q62351 89-763)": "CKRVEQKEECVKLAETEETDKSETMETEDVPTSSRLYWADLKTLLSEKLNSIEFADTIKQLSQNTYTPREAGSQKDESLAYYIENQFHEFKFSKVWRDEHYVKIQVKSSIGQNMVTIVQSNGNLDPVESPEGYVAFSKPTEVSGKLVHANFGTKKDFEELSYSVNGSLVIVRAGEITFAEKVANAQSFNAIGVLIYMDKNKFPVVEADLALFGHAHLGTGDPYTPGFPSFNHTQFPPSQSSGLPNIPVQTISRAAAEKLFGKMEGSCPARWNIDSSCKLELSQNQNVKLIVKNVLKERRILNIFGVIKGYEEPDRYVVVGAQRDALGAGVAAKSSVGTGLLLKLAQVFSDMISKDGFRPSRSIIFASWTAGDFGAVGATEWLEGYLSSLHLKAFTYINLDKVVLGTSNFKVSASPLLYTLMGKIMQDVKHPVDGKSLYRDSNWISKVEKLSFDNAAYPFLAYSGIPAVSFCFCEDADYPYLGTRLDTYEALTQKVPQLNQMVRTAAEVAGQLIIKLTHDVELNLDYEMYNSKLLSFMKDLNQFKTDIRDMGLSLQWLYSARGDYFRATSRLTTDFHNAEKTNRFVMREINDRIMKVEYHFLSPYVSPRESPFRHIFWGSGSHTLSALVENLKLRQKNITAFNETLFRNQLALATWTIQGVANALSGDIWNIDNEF", "test": "BLI; 200 nM mTfR1 over immobilized biotinylated aptamer", "conditions": "tags: His-tag, Sino Biological 50741-M07H; chain copies: 2; label: 5'-FAM (with added 5' T), 5'-Cy5 or 5'-biotin; multi-hairpin on stem; G-quadruplex predicted"}, "[13]": {"molecular_target": "T3, Transferrin receptor 1 (TfR1, CD71), …", "test": "flow; H9 cells, apparent Kd (+/-0.2), 4 C", "conditions": "chain copies: 2 (stated homodimer); label: 5'-FAM, 5'-Cy5 or 5'-biotin; hairpin"}, "[14]": {"molecular_target": "T3, Transferrin receptor 1 (TfR1, CD71), …", "test": "flow; activated CD8+ T cells, apparent Kd, 4 C", "conditions": "chain copies: 2 (stated homodimer); label: biotin; 3' 8-nt toehold overhang, redesigned stem"}, "[15]": {"molecular_target": "T3, Transferrin receptor 1 (TfR1, CD71), …", "test": "flow; activated CD4+ T cells, apparent Kd, 4 C", "conditions": "chain copies: 2 (stated homodimer); label: biotin; 3' 8-nt toehold overhang, redesigned stem"}, "[16]": {"conditions": "label: 5'-FAM, 5'-Cy5 or 5'-biotin, hairpin"}},
  "data": [
    {"binder": "JBA8.11 (ssDNA) DNA: ATCCAGAGTGACGCAGCAGCCGGTCGCAGATGCAAATGCCCGACAGGGGGACGCGGGCTGCCATGGACACGGTGGCTTAGT", "values": [
      {"measurement": "binding result", "setting": "[1]", "result": "no binding"}
    ]},
    {"binder": "RANL (ssDNA) DNA: ATCCAGAGTGACGCAGCAAATTCCAAACTCGAGTAAGCGTAGAGCCTCTCATCGCCTCAATAATGGACACGGTGGCTTAGT", "values": [
      {"measurement": "binding result", "setting": "[2]", "result": "no binding"},
      {"measurement": "binding result", "setting": "[3]; label: 5'-FAM, 5'-Cy5 or 5'-biotin", "result": "no binding"}
    ]},
    {"binder": "JBA8.4 (ssDNA) DNA: ATCCAGAGTGACGCAGCAACCCAAACCACCAGCCGGGGATGCAAACACCGCACAGGGAACGGCTGGACACGGTGGCTTAGT", "values": [
      {"measurement": "binding result", "setting": "[1]", "result": "no binding"}
    ]},
    {"binder": "JBA8.26 (ssDNA) DNA: ATCCAGAGTGACGCAGCAGCGTAAAGGGGGTGTTTGTGCGGTGTGGAGTGCGCGCGCTGCTGCTGGACACGGTGGCTTAGT", "values": [
      {"measurement": "Kd", "setting": "[4]", "result": 3.3, "unit": "nM"},
      {"measurement": "Kd", "setting": "[5]; label: 5'-FAM or 5'-Cy5, multi-hairpin with extended stem", "result": 6.87, "unit": "nM"}
    ]},
    {"binder": "JBA8.1 (ssDNA) DNA: ATCCAGAGTGACGCAGCAGCGTAAAGGGGGTGTTTGTGCGGTGTGGAGTGCGCGTGCTGCTGCTGGACACGGTGGCTTAGT", "values": [
      {"measurement": "Kd", "setting": "[6]; label: 5'-FAM or 5'-Cy5, multi-hairpin on stem, G-quadruplex predicted", "result": 5.5, "unit": "nM"}
    ]},
    {"binder": "JBA8.15 (ssDNA) DNA: ATCCAGAGTGACGCAGCACTCTCGGGGGGTAGGTGGGAAGGGGGCCGCCCCCTGGGTTAGGCTTGGACACGGTGGCTTAGT", "values": [
      {"measurement": "binding result", "setting": "[1]", "result": "no binding"}
    ]},
    {"binder": "tJBA8.1 (ssDNA) DNA: GCAGCAGCGTAAAGGGGGTGTTTGTGCGGTGTGGAGTGCGCGTGCTGCTGC", "values": [
      {"measurement": "Kd", "setting": "[7]", "result": 25.1, "unit": "nM"},
      {"measurement": "Kd", "setting": "[8]", "result": 25.6, "unit": "nM"},
      {"measurement": "Kd", "setting": "[9]", "result": 1.85, "unit": "nM"},
      {"measurement": "Kd", "setting": "[10]", "result": 8.07, "unit": "nM"},
      {"measurement": "Kd", "setting": "[11]", "result": 10.9, "unit": "nM"},
      {"measurement": "binding result", "setting": "[12]", "result": "no binding"}
    ]},
    {"binder": "tJBA8.1 GGAGG (ssDNA) DNA: GCAGCAGCGTAAAGGAGGTGTTTGTGCGGTGTGGAGTGCGCGTGCTGCTGC", "values": [
      {"measurement": "binding result", "setting": "[3]", "result": "no binding"}
    ]},
    {"binder": "tJBA8.1 GGGGC (ssDNA) DNA: GCAGCAGCGTAAAGGGGCTGTTTGTGCGGTGTGGAGTGCGCGTGCTGCTGC", "values": [
      {"measurement": "binding result", "setting": "[3]", "result": "no binding"}
    ]},
    {"binder": "tJBA8.1 GGGAG (ssDNA) DNA: GCAGCAGCGTAAAGGGAGTGTTTGTGCGGTGTGGAGTGCGCGTGCTGCTGC", "values": [
      {"measurement": "binding result", "setting": "[3]", "result": "no binding"}
    ]},
    {"binder": "JBA8.7 (ssDNA) DNA: ATCCAGAGTGACGCAGCAACCACAGATGCAAATGCGCGAGAGCGGGACGGTTTGCTAGGCTCATGGACACGGTGGCTTAGT", "values": [
      {"measurement": "binding result", "setting": "[1]", "result": "no binding"}
    ]},
    {"binder": "XQ-2d (ssDNA) DNA: ACTCATAGGGTTAGGGGCTGCTGGCCAGATACTCAGATGGTAGGGTTACTATGAGC", "values": [
      {"measurement": "binding result", "setting": "[3]; [16]", "result": "no binding"},
      {"measurement": "Kd", "setting": "[13]", "result": 2.2, "unit": "nM"},
      {"measurement": "Kd", "setting": "[5]; [16]", "result": 14.4, "unit": "nM"}
    ]},
    {"binder": "rvCD71apt (JBA1.2) (ssDNA) DNA: GGAGTCACACGCATTAGCGTAAAGGGGGTGTTTGTGCGGTGTGGAGTGCGCGTGCTAATGCTGGAGTGTTTCCCAGGACCC", "values": [
      {"measurement": "Kd", "setting": "[6]; label: biotin, 3' 8-nt toehold overhang, redesigned stem", "result": 35.2, "unit": "nM"},
      {"measurement": "Kd", "setting": "[14]", "result": 35, "unit": "nM"},
      {"measurement": "Kd", "setting": "[15]", "result": 28.5, "unit": "nM"}
    ]},
    {"binder": "JBA8.3 (ssDNA) DNA: ATCCAGAGTGACGCAGCAGGGGCCGCGGATGCAAACGCCCGATAGGGGGACGGCACTGGAGCTTGGACACGGTGGCTTAGT", "values": [
      {"measurement": "binding result", "setting": "[1]", "result": "no binding"}
    ]}
  ]
}
